Experimental data: paper PMC3445539
One block for each substance: values may come before it.

Legend:
mCherry-CENP-P [1] = biological target: mCherry-CENP-P (UniProt Q6IPU0); assay: fluorescence cross-correlation spectroscopy (FCCS); nucleoplasm free of kinetochores in living double-transfected U2OS cells, EGFP and mCherry fusions, 37°C
mCherry-CENP-P [2] = biological target: mCherry-CENP-P (UniProt Q6IPU0); assay: FRET or BRET; FLIM: donor fluorescence lifetime by time-correlated single photon counting at kinetochores of living HEp-2 cells, EGFP donor and mCherry acceptor
mCherry-CENP-O (human) = mCherry-CENP-O (human) (UniProt Q9BU64); assay: as above
UniProt Q9BU64, sequence (Q9BU64 whole entry): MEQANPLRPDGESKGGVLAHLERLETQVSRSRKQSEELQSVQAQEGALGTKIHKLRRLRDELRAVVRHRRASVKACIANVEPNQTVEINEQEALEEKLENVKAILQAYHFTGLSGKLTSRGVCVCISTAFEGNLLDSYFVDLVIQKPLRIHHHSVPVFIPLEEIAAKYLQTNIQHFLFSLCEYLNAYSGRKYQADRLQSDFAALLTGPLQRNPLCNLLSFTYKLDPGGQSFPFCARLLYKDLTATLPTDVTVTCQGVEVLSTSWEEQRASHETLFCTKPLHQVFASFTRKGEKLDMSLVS

Substance: EGFP-CENP-O
- percent hetero-dimers, the authors' corrected estimate (mCherry-CENP-P [1]; other: fluorescence cross-correlation spectroscopy (FCCS)): we estimate 40–60%

- donor fluorescence lifetime in the presence of the acceptor (mCherry-CENP-P [2]): 2.08 nsec
Substance: CENP-Q-EGFP (from UniProt Q7L2Z9 1-268) (natural protein)

- donor fluorescence lifetime in the presence of the acceptor (mCherry-CENP-O (human)): 2.16 nsec
Substance: CENP-P-EGFP (from UniProt Q6IPU0 1-288) (natural protein)

- percent hetero-dimers, A(CC)/A(AC) (mCherry-CENP-P [1]): 20 to 30%
- percent of the molecules co-migrating (cross-correlation amplitude over mCherry amplitude) (mCherry-CENP-P [1]): 29%
Substance: EGFP-CENP-O (from UniProt Q9BU64 1-300) (natural protein)
